From patent US20100233079A1 (AbbVie / Abbott, published 2010)
Residue numbers refer to the chain shown, from its start.

B1: 13C5.5 (antibody, V domains shown)
VH: EVTLRESGPGLVKPTQTLTLTCTLYGFSLSTSDMGVDWIRQPPGKGLEWLAHIWWDDVKRYNPALKSRLTISKDTSKNQVVLKLTSVDPVDTATYYCARTVSSGYIYYAMDYWGQGTLVTVSS
VL: DIQMTQSPSSLSASVGDRVTISCRASQDIRNYLNWYQQKPGKAPKLLIFYTSKLHSGVPSRFSGSGSGTDYTLTISSLQPEDIATYYCQQGNTLPLTFGGGTKVEIKR
notes: Monoclonal antibody; also called AB231
B2: 13C5.5L3F (antibody, V domains shown)
VH: B1 VH
VL: B1 VL with N92L, L94P
notes: Monoclonal antibody; also called AB232
B3: AB016 (antibody, V domains shown)
VH: EVQLVESGGGLVQPGGSLRLSCAASGFSFSSEPISWVRQAPGKGLEWVSSITGKNGYTYYADSVKGRFTISADTSKNTAYLQMNSLRAEDTAVYYCARWGKKVYGMDVWGQGTLVTVSS
VL: DIQMTQSPSSLSASVGDRVTITCRASQSISSYLAWYQQKPGKAPKLLIYGASSRASGVPSRFSGSGSGTDFTLTISSLQPEDFATYYCQQYMSVPITFGQGTKVEIKR
notes: Parent antibody

What was measured:
[1] = biological target: T1, rhIL-13 (recombinant human IL-13) (human, UniProt P35225 35-146, limits assumed); experiment: cell-based or functional assay
T1 sequence (P35225 35-146 limits assumed): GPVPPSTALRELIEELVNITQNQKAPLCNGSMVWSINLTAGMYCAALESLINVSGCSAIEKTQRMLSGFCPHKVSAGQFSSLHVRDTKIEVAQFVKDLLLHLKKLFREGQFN

[2] = biological target: T1, rhIL-13 (recombinant human IL-13); experiment: SPR (Biacore 3000), mAb captured by anti-human IgG Fc, antigen in solution
Excerpt: Unreacted moieties on the biosensor surface were blocked with ethanolamine. Modified carboxymethyl dextran surface in flowcell 2 and 4 was used as a reaction surface.

[3] = biological target: T2, NRP1 (Neuropilin-1 Npn-1-His tag) (UniProt O14786-2 22-644, limits assumed); experiment: direct bind ELISA, antigen on plate
T2 construct: Bought antigen with a His tag
Protocol: Enzyme Linked Immunosorbent Assays to screen for antibodies that bind a desired target antigen were performed as follows. […] Plates were washed four times with PBS containing 0.02% Tween 20. […] Plates were washed four times after blocking with PBS containing 0.02% Tween 20.
One hundred microliters of 10 ng/mL goat anti-human IgG-FC specific HRP conjugated antibody (Southern Biotech #2040-05, Birmingham, Ala.) was added to each well of the desired target antigen plate or anti-polyHistidine antibody/Histidine tagged desired target antigen plate. Alternatively, one hundred microliters of 10 ng/mL goat anti-human IgG-kappa light chain specific HRP conjugated antibody (Southern Biotech #2060-05 Birmingham, Ala.) was added to each well of the desired target antigen/FC fusion plate and incubated for 1 hour at room temperature. Plates were washed 4 times with PBS containing 0.02% Tween 20.

Binder | IC50 (nM), A549 bioassay (IL-13 induced TARC) [1] | Kd [2] | EC50 [3]
B1 | 0.2 nM | 0.15 nM | 
B2 | 0.31 nM | 0.24 nM | 
B3 |  |  | 0.28 nM
